Measurements published in the nanobody polyreactivity screen of Harvey et al. (2022).

Test: yeast display, Sf9 membrane polyspecificity reagent, FACS + sequencing; frameworks hold sequencing errors
Method in brief: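 A nanobody's polyreactivity label depends on the gate it was sorted from. Yeast display cells were stained with 10% biotinylated, detergent-solubilized Sf9 membrane reagent for 1 hour at 4 °C, enriched on streptavidin microbeads and sorted by FACS. The low and high (top ~1%) gates were set on anti-HA fluorescence for expression and streptavidin fluorescence for reagent binding.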
With “QVQLVESGGGLVQAGGSLRLSCAASGRIFGFNAMGWYRQAPGKERELVAGITDSSGRTNYADSVKGRFTISRDNAKNTVYLQMNSLKPEDTAVYYCAKASAYGLANDYDYWGQGTQVTVSS” the “polyreactivity (PSR sort gate)” value was “low polyreactivity”.
In the case of “QVQLVESGGGLVQAGGSLRLSCAASGRIFGFNTMGWYRQAPGKERELVAAISRNGGSTYYADSVKGRFTISRDNAKNTVYLEMNSLKPEDTAVYYCAKRWYPYSYDYWGQGTQVTVSS”, the “polyreactivity (PSR sort gate)” value is reported as “high polyreactivity”.
In the case of “QVQLVESGGGLVQAGGSLRLSCAASGRIFGFYAMGWYRQAPGKERELVAAITNGGSTYYADSVKGRFTISRDNAKNTVDLQMNSLKPEDTAVYYCNKGRQAHLHITMDYWGQGTQVTLSS”, the “polyreactivity (PSR sort gate)” value is reported as “low polyreactivity”.
With “QVQLVESGGGLVQAGGSLRLSCAASGRIFGFYTMGWYRQAPGKERELVAGISRGGSTYYADSVKGRFTISRDNAKNTGYVQMNSLNPEDTAVYDCAADLGWGYEYWGQGTQVTVSS” the “polyreactivity (PSR sort gate)” value was “low polyreactivity”.
For “QVQLVESGGGLVQAGGSLRLSCAASGRIFGGNAMGWYRQAPGKERELVAAISQRGGSTSYADSVKGRFTISRDNAKNTVYLQMNSLKPEDTAVYYCAATWGYLRGSTKFYYWGQGTQVTVSS”, the “polyreactivity (PSR sort gate)” value was “high polyreactivity”.
In the case of “QVQLVESGGGLVQAGGSLRLSCAASGRIFGGNAMGWYRQAPGKERELVAAITWGGSTNYADSVKGRFTISRDNAKNTVYLQMNRLKPEDTAVYYCNADPVRDTYWHPETQQWYGYWGQGTQVTVSS”, the “polyreactivity (PSR sort gate)” value is reported as “low polyreactivity”.
For “QVQLVESGGGLVQAGGSLRLSCAASGRIFGGYAMGWYRQAPGKERELVAVITDGGSTNYADSVKGRFTISRDNAKNTVYLQMNSLKPEDTAVYYCAADSDGDEPPYDYWGQGTQVTVSS”, the “polyreactivity (PSR sort gate)” value was “low polyreactivity”.
For “QVQLVESGGGLVQAGGSLRLSCAASGRIFGGYARGWYRQAPGKERELVAVINGGTSTKYADSVKGRFTISRDNAKNTVYLQMNSLKPEDTAVYYCAKTRHDSLQNRNRYDYWGQGTQVTVSS”, the “polyreactivity (PSR sort gate)” value was “low polyreactivity”.
With “QVQLVESGGGLVQAGGSLRLSCAASGRIFGGYTMGWSRPAPGKERELVAAITGSGGRTYYADSVKGRFTISRDNAKNTVYLQMNSLQPEDTAVYYCNTVYRYLYSWGQGTQVTVSS” the “polyreactivity (PSR sort gate)” value was “high polyreactivity”.
With “QVQLVESGGGLVQAGGSLRLSCAASGRIFGGYTMGWYRQAPGKERELVASINSGGSTAYADSVKGRFTISRDNAKNTVYLQMNSLKPEDTAVYYCAKRYAQTYSVSRYYYWGQGTQVTVSS” the “polyreactivity (PSR sort gate)” value was “high polyreactivity”.
For “QVQLVESGGGLVQAGGSLRLSCAASGRIFGHNAMGWYRQAPGKERELVARISSTGSTKYADSVKGRFTISRDNAKNTVYLQMNSLKPEDTAVYYCAAYIIRWKGSSYYWGQGTQVTVSS”, the “polyreactivity (PSR sort gate)” value was “high polyreactivity”.
In the case of “QVQLVESGGGLVQAGGSLRLSCAASGRIFGHNAMGWYRQAPGKERELVATISSGVRTNYADSVKGRFTISRDNAKNTVYLQMNSLKPEDTAVYYCATKTYQFGYSSYYYWGQGTQVTVSS”, the “polyreactivity (PSR sort gate)” value is reported as “high polyreactivity”.
For “QVQLVESGGGLVQAGGSLRLSCAASGRIFGHNSMGWSRQPPWKEMELVATISSGVRTNYADSVKGRFTISRDNAKNTVYLQMNSLKPEDTAVYYCATKTYQFGYSSYYYWGQGTQVTVSS”, the “polyreactivity (PSR sort gate)” value was “high polyreactivity”.
For “QVQLVESGGGLVQAGGSLRLSCAASGRIFGHYAIGWYRKAPGKERELVAAISTSGGSTYYADSVKGRFTISRDNAKNTVYLQMNSLKPEDTAVYYCAASVVYYPYDYWGQGTQVTVSS”, the “polyreactivity (PSR sort gate)” value was “high polyreactivity”.
In the case of “QVQLVESGGGLVQAGGSLRLSCAASGRIFGINALGWYRQAPGKERELVAAISSADSTYADSVKGRFTISRDNAKNTVFLQMYSLNPEDTAVYNCRNDYWGQGTQVTVSS”, the “polyreactivity (PSR sort gate)” value is reported as “low polyreactivity”.
In the case of “QVQLVESGGGLVQAGGSLRLSCAASGRIFGINAMGWYRQAPGKERELVAAINRSGDTTNYADSVKGRFTISRDNAKNTVYLQMNSLKPEDTAVYYCAADGYRQVYYRYYYWGQGTQVTVSS”, the “polyreactivity (PSR sort gate)” value is reported as “high polyreactivity”.
In the case of “QVQLVESGGGLVQAGGSLRLSCAASGRIFGINAMGWYRQAPGKERELVAAITWSGDGTYDADSVKGRFTISRDNAKNTVYLQMNSLKPEDTAVYYCAKQLPEISQMDYWGQGTQVTVSS”, the “polyreactivity (PSR sort gate)” value is reported as “low polyreactivity”.
For “QVQLVESGGGLVQAGGSLRLSCAASGRIFGKYAMGWYRQAPGKERELVAAISRSGASTYYADSVKGRFTISRDNAKNTVYLQMNSLKPEDTAVYYCAAVPPYNYRVRVYYWGQGTQVTVSS”, the “polyreactivity (PSR sort gate)” value was “high polyreactivity”.
In the case of “QVQLVESGGGLVQAGGSLRLSCAASGRIFGKYAMGWYRQAPGKERELVAAISSSGGSTYYADSVKGRFTISRDNAKNTVYLQMNSLKPEDTAVYYCAADAAVSRVYPYDYWGQGTQVTVSS”, the “polyreactivity (PSR sort gate)” value is reported as “high polyreactivity”.
For “QVQLVESGGGLVQAGGSLRLSCAASGRIFGKYAMGWYRQAPGKERELVAAISSSGRTNYADSVKGRFTISRDNAKNTVYLQMNSLKPEDTAVYYCAVRVLIHTNTRRLDYWGQGTQVTVSS”, the “polyreactivity (PSR sort gate)” value was “high polyreactivity”.
In the case of “QVQLVESGGGLVQAGGSLRLSCAASGRIFGKYAMGWYRQAPGKERELVAAISVRGGRTFYADSVKGRFTISRDNAKNTVYLQMNSLKPEVTAVYYCAARGADKGSYADVDYWGQGTQVTVSS”, the “polyreactivity (PSR sort gate)” value is reported as “low polyreactivity”.
For “QVQLVESGGGLVQAGGSLRLSCAASGRIFGLNAMGWYRQAPGKERELVAAITGSVGSTYYADSVKGRFTISRDNAKNTVYLQMNSLKPEDTAVYYCNAEYDSRRSSYYRHFNYWGQGTQVTVSS”, the “polyreactivity (PSR sort gate)” value was “low polyreactivity”.
With “QVQLVESGGGLVQAGGSLRLSCAASGRIFGNTMGWYRQAPGKERELVAAITRSGVSTYYADSVKGRFTISRDNAKNTVYLQMNSLKPEDTAVYYCAKVYSRRSVLSRYGSWGQGTQVTVSS” the “polyreactivity (PSR sort gate)” value was “high polyreactivity”.
With “QVQLVESGGGLVQAGGSLRLSCAASGRIFGNYAMGWYRQAPGKERELVAAISGGGSTYYADSVKGRFTISRDNAKNTVYLQMKSLKPEDTAVYYCAARFLWSVFGRKGGYWGQGTQVTVSS” the “polyreactivity (PSR sort gate)” value was “low polyreactivity”.
In the case of “QVQLVESGGGLVQAGGSLRLSCAASGRIFGNYAMGWYRQAPGKERELVAAISGGGSTYYADSVKGRFTISRDNAKNTVYLQMNSLKPEDTAVYYCAARFLWSVFGHKGGYWGQGTQVTVSS”, the “polyreactivity (PSR sort gate)” value is reported as “low polyreactivity”.
For “QVQLVESGGGLVQAGGSLRLSCAASGRIFGNYAMGWYRQAPGKERELVAAITSGARTYYADSVKGRFTLSRDNAKNTVYLQMNSLKPEDTAVYYCAAYHKSYSNRYDYWGQGTHVTVSS”, the “polyreactivity (PSR sort gate)” value was “high polyreactivity”.
With “QVQLVESGGGLVQAGGSLRLSCAASGRIFGPNAMGWYRQAPGKETELVAVISTGGSTNYADSVKGRFTISRDNAKNTVYLQMNSLKPEDTAVYYCAAAYQYERGGLYNRFYYWGQGTQVTVSS” the “polyreactivity (PSR sort gate)” value was “low polyreactivity”.
With “QVQLVESGGGLVQAGGSLRLSCAASGRIFGPYAMGWYRQAPGKERELVAAISWSGGSTYYADSVKGRFTISRDNAKNTVFLQMNSLKPEDTAVYYCAARERRVYGDRFYKLDYWGQGTQVTVSS” the “polyreactivity (PSR sort gate)” value was “high polyreactivity”.
In the case of “QVQLVESGGGLVQAGGSLRLSCAASGRIFGPYAMGWYRQAPGKERELVASISYSGGSTYYADSVKGRFTISRDNAKNTVYLQMNSLKPEDTAVYYCARRAVYSKRRYDYWGQGTQVTVSS”, the “polyreactivity (PSR sort gate)” value is reported as “low polyreactivity”.
In the case of “QVQLVESGGGLVQAGGSLRLSCAASGRIFGPYTMGWYRPAPGKERELVARISRRGGSTYYADSVKGRFTISRDNAKNTVYLQMNSLKPEDTAVYYCAAWFTSTRPYDYWGQGTQVTVSS”, the “polyreactivity (PSR sort gate)” value is reported as “high polyreactivity”.
For “QVQLVESGGGLVQAGGSLRLSCAASGRIFGPYTMGWYRQAPGKERELVAAISWSGGSTYYADSVKGRFTISRDNAKNTVYLQMNSLKPEDTAVFYCNADHPFPQYEGGSWGQGTQVTVSS”, the “polyreactivity (PSR sort gate)” value was “low polyreactivity”.
With “QVQLVESGGGLVQAGGSLRLSCAASGRIFGQYAMGWYRQAPGKERELVAAISWRGGTTYYADSVKGRITISRDKAKNTVYLQMNSLKPVDTAVYYCNADVWVYPYDYWGQGTQVTVSS” the “polyreactivity (PSR sort gate)” value was “low polyreactivity”.
In the case of “QVQLVESGGGLVQAGGSLRLSCAASGRIFGQYAMGWYRQAPGKERELVASISRRGGSKNYADSVKGRFTISRDNAKNTVYLQMNSRKPEDTAVYYCATGRTWILQKLDYWGQGTQVPVSS”, the “polyreactivity (PSR sort gate)” value is reported as “high polyreactivity”.
For “QVQLVESGGGLVQAGGSLRLSCAASGRIFGRNAMGWYRQAPGKERELVAAISSGSGSTYYADSVKGRFTISRDNAKNTVYLQMISLKPEDTAVYYCAATVSTYLAWRGYWGQGTQVTVSS”, the “polyreactivity (PSR sort gate)” value was “high polyreactivity”.
In the case of “QVQLVESGGGLVQAGGSLRLSCAASGRIFGRNARGWYRQAPGKERELVAAISSSGGTYYADSVKGRFTISRYNAKNTVYLQMNSLKPEDTAVYYCNARVRTQQRWVDYWGLGTQVTVSS”, the “polyreactivity (PSR sort gate)” value is reported as “high polyreactivity”.
With “QVQLVESGGGLVQAGGSLRLSCAASGRIFGRNTMGWYRQAPGKERELVASITFGGVSTYYADSVKGRFTISRDNAKNTVYLQMNSLKPEDTAVYYCAAVLINYEGYDSWGQGTQVTVSS” the “polyreactivity (PSR sort gate)” value was “low polyreactivity”.
With “QVQLVESGGGLVQAGGSLRLSCAASGRIFGRNTMGWYRQAPGKERELVAVISWRGGSTYYADSVKGRFTISRDNAKNTVYLQMNSLKPEDTAVYDCNPKYPFSRRGDYWGQGTQVTVSS” the “polyreactivity (PSR sort gate)” value was “high polyreactivity”.
For “QVQLVESGGGLVQAGGSLRLSCAASGRIFGRYAMGRYRQAPGKERELVAAISSTVGSTYYADSVKGRFTISRDNAKNTVDLQMNSLKPEDTAVYYCATVWYGSYYWATEYWGQGTQVTVSS”, the “polyreactivity (PSR sort gate)” value was “high polyreactivity”.
With “QVQLVESGGGLVQAGGSLRLSCAASGRIFGRYAMGWYRQAPGKERELVAAITRSGGNTYYADSVKGRFTISRDNAKNTVYLQMNSLKPEDTAVYYCAVRQLDRRSPKYNYWGQGTQVTVSS” the “polyreactivity (PSR sort gate)” value was “high polyreactivity”.
In the case of “QVQLVESGGGLVQAGGSLRLSCAASGRIFGRYAMGWYRQAPGKERELVATITYTGGSTYYADSVKGRFTISRDNAKNTVYLQMNSLKPEDTAVYSCNAVKPVSRTYDSSYYWGPGTQVTVSS”, the “polyreactivity (PSR sort gate)” value is reported as “high polyreactivity”.
In the case of “QVQLVESGGGLVQAGGSLRLSCAASGRIFGRYTMGWYRQAPGKERELVAGITSSGGRTYYADSVKGRFTISRDNANNTVYLQMNSLKPEDTAVYYCAAKRWSVPSLYNYWGQGTQVTVSS”, the “polyreactivity (PSR sort gate)” value is reported as “high polyreactivity”.
For “QVQLVESGGGLVQAGGSLRLSCAASGRIFGTDVMGWYRQAPGKERELVARITGGGSTNYADSVKGRFTISRDNAKNTVYFQMNSLKPEDTAVYYCARDYGPYLSPENPAPMDYWGQGTQVTVSS”, the “polyreactivity (PSR sort gate)” value was “low polyreactivity”.
With “QVQLVESGGGLVQAGGSLRLSCAASGRIFGTNALGWYRQAPGKERELVATITRGGGNTYYADSVKGRFTISRDNAKNTVYLQMNSLKPEDTAVYYCAAKFHRFAWYSHYDYWGQGTQVTVSS” the “polyreactivity (PSR sort gate)” value was “low polyreactivity”.
